The target in data set [1] is DivIVAEf (bacterial two-hybrid fusion) (Enterococcus faecalis JH2-2) (UniProt Q93C53). As to the kind of experiment: two-hybrid; bacterial two-hybrid (Di Lallo) in E. coli R721, vectors pcI434-L and pcIp22-L, 0.1 mM IPTG; residual β-galactosidase activity, less than 50% indicates a positive interaction.
Data set [2] concerns the molecule itself. The data set can be described thus: SEC-MALS; 1 mg purified 6×His-EF1025 on Superdex 200 in 50 mM Tris base, 400 mM NaCl, pH 7.4; also with 1 mM dithiothreitol.

For the molecule “EF1025-c (AA80-209 of EF1025), bacterial two-hybrid fusion (domain or fragment)”, in data set [1], the residual β-galactosidase activity stood at 14%.

B1: 6×His-EF1025 (natural protein, Enterococcus faecalis JH2-2, UniProt Q836T2 1-209, looked up)
chain: MKLSKRQEQIIAVVKEHQPVSGERISDILAVSRATLRSDLSFLTLSGILKASPKVGYTYESDNMEAFFFFDVFQTKVQEIMSPPLMVAQDTSIRDAITNLFMYDVGSLYVMDEAKELLGVLSRKDLLRASLNTNIDGTPVAVCMTRVPHVKTCTPEFTILEAADTLQKYEVDSLPVVEKENPKKVIGKITKTKILTYITQQAKEAAQNR
notes: hypothetical protein EF1025 of Enterococcus faecalis (209 AA), gene amplified with primers EF1025F-F/R and cloned into pET30a(+); Vector pET30a(+); also called pETEF1025; source: E. coli C41 (DE3), in lysate supernatant (pull-down); copies: 10
B1: the “stoichiometry N” value in data set [2] was found to be 10.

The values above are taken from PMC7028823, “EF1025, a Hypothetical Protein From Enterococcus faecalis, Interacts With DivIVA and Affects Cell Length and Cell Shape” (Frontiers in Microbiology, 2020).
